{"source": "the nanobody polyreactivity screen of Harvey et al. (2022)"}
{"experiment": "yeast display, Sf9 membrane polyspecificity reagent, FACS + sequencing; frameworks hold sequencing errors", "method_in_brief": "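Synthetic nanobody libraries on Saccharomyces cerevisiae BJ5465 were galactose-induced for 36–48 hours, stained 1 hour at 4 °C with 10% biotinylated, detergent-solubilized Sf9 membrane reagent and enriched on streptavidin microbeads. FACS then separated cells into low and high (top ~1%) gates by anti-HA (expression) and streptavidin (reagent binding) fluorescence. Genes were colony-PCR amplified, MiSeq 2 × 250 sequenced and CDR-length filtered. A clone's polyreactivity label is that of its gate of origin.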"}
{"sequence": "QVQLVESGGGLVHAGGSLRLSCAAWSIFYLNAMGWYRQAPGKERELVAAISSAGSTYYADSVKGRFTISRDNAKNTVYLQMNSLKPEDTAVYYCAAYWYDSPGVTEIWYDYWGQGTQVTVSS", "polyreactivity (PSR sort gate)": "low polyreactivity"}
{"sequence": "QVQLVESGGGLVHAGGSLRLSCAAYGSIFNYYAMGWYRQAPGKERVFVADISGSGSSTYYADSVKGRFTISRDNAKNTFYLQKNSLKPEDTAVYYCNAEYYWGVGYYPYSDYGYWGQGTQVTVSS", "polyreactivity (PSR sort gate)": "low polyreactivity"}
{"sequence": "QVQLVESGGGLVHAGGSLRLSCASSGFTYSQYVMGWYRQAPGKERELVASITGNGGSTRYADSVKGRFTISRDNANKTVYLQMNCLKPEDTAVYYCDTRVKFSTSYWLYYWGQGTQVTVSS", "polyreactivity (PSR sort gate)": "high polyreactivity"}
{"sequence": "QVQLVESGGGLVHAGGSLRLSCASSGRTFAYSAMGWYRQAPGIERELVATITSAGSTNYADSVKGRFTISRDNAKNTVYLQMNSLKPEDTAVYYCNRRVWGSSRLKYNYWGQGTQVTVSS", "polyreactivity (PSR sort gate)": "high polyreactivity"}
{"sequence": "QVQLVESGGGLVHAGGSLRLSCASSGSTFAQYALGWYRPAPGKDREFVAAITRGGGRTYYADSVNGRFTISRDNAKYSVYLQMNSLKPEVTAVYYCNAVYRYYPFDYWGQGTQVTVSS", "polyreactivity (PSR sort gate)": "high polyreactivity"}
{"sequence": "QVQLVESGGGLVHAGGSLRLSCASSGSTFVLYAMGWYRQAPGKERELVAVISWSGGSTYYADSVKGRFTISRDNAKNTVYLQLYSLKPEDTAVYYCAKRYRVSYYPYADPYGYWGQGTQVNVSS", "polyreactivity (PSR sort gate)": "low polyreactivity"}
{"sequence": "QVQLVESGGGLVHAGGSLRLSCSASGSTFGPYAMGWYRQAPGKERELVAAISSRGARTYYADSVKGRFTISRDNAKNTVYLQMNSLKPEDTAVYYCANTYHGTAYDYWGQGTQVTVSS", "polyreactivity (PSR sort gate)": "high polyreactivity"}
{"sequence": "QVQLVESGGGLVHAGGSLRLTCAASGSISSFYAMGWYRQEPGKERELVAGITSGGSTNYADSVKGRFTISRDNAKNTVYLQMNSLKAEDTAVYYCAAVYKCAGTHFDVFVKEFDYWGQGTQVTVSS", "polyreactivity (PSR sort gate)": "low polyreactivity"}
{"sequence": "QVQLVESGGGLVHEGGSLRLIFAASGRIFGPNHMGWYRQAPGKERELVAAITDSCDITYYADSVKGRFTISRDNAKNTVYLQMNSLKPQDTAVYYCAADHTYENEYWGQGTQVNVSS", "polyreactivity (PSR sort gate)": "low polyreactivity"}
{"sequence": "QVQLVESGGGLVHSGGSLRLSCAASGSIFDYYAMGLYRQAPGKERELVAAISWRGGTTYYADSVKGRFTISRDNANNTVFLQMNRLKPEYTAVYYCNADKRFRRYDYWGQGNQVTVSS", "polyreactivity (PSR sort gate)": "high polyreactivity"}
{"sequence": "QVQLVESGGGLVKAGGSLRLRGAASGSIFGRYAMGWYRQAPGKERELVAAISKNGGSTYYADSVKGRFTISRDNAKNTVYLQMNILKPEDTAVYYCNTVRYSGNYRDQEGDYWGQGTQVTVSS", "polyreactivity (PSR sort gate)": "high polyreactivity"}
{"sequence": "QVQLVESGGGLVKAGGSLRLSCAASGFIFRTYAMGWYRQAPRKERELVAAITGRGGTTYYADSVKGRFTISRDHAKNTVYLQMNSLKAEDTAVYYCADRSRDYNYNPYDYWGLGTQVTVSS", "polyreactivity (PSR sort gate)": "high polyreactivity"}
{"sequence": "QVQLVESGGGLVKAGGSLRLSCAASGIIFSFYTMGWYRQAPGKQRELVAAITWSGGSTYYADSVKGRFTISRDNAKNTVYLQMNSLKPEDTAVYFCNARYPWRKRSQGYSWGQGTQVTVSS", "polyreactivity (PSR sort gate)": "low polyreactivity"}
{"sequence": "QVQLVESGGGLVKAGGSLRLSCAASGITFLYYAMACYRQAPGKERELVAAISTSGGSTYYSDSVKGRFTISRDNAKNTVYLQMNSLKPEDTAVYYCAKSVGVGGEDRVGSWGQGTQVTVSS", "polyreactivity (PSR sort gate)": "low polyreactivity"}
{"sequence": "QVQLVESGGGLVKAGGSLRLSCAASGLTLPANAMGWYRQAPGKEREFVAAISVGGDTTSYADSVKGRFTISRDNAKNTVYLQMNSLKPEDTAVYYCAADEIHDPRTYRGSAGDYWGQGTQVTVSS", "polyreactivity (PSR sort gate)": "low polyreactivity"}
{"sequence": "QVQLVESGGGLVKAGGSLRLSCAASGRIFNWYAMGWYRQAPGKEREFVAAITFSGGSTYYADSVKGRFTISRDNAKNTVYLQMNSLKPEDTAVYYCAAEIYFFVSYDYWGQGTQVTVSS", "polyreactivity (PSR sort gate)": "low polyreactivity"}
{"sequence": "QVQLVESGGGLVKAGGSLRLSCAASGRIFVFNAMGWYRQAPGKERELVAAITSAGSTYYADSVKGRFTISRDNAKNTVYLQMNSLIPEDTAVYYCAAGSRRYRDDYWGQGTQVNVSS", "polyreactivity (PSR sort gate)": "low polyreactivity"}
{"sequence": "QVQLVESGGGLVKAGGSLRLSCAASGRTFALYAMGWYRLAPGKERELVAGITFRGGSTYYADSVKGRFRISRDNAKNTVYLQMNSLKPEDTAVYYCAAERWRWYYSWTMDYWGQGTQVTVSS", "polyreactivity (PSR sort gate)": "high polyreactivity"}
{"sequence": "QVQLVESGGGLVKAGGSLRLSCAASGRTFRYNAMGWYRQPPGKERELVAVINSNGGSTYYADSVKGRFTISRDNAKNTVYLQMNSLKPEDTAVYYCAADYIRIQEYDYWGQGTQVTVSS", "polyreactivity (PSR sort gate)": "low polyreactivity"}
{"sequence": "QVQLVESGGGLVKAGGSLRLSCAASGSIFPFYAMGSYRQAPGKERELVATISWSGGRTYYADSVKGRFTISRDNAKNTVYLQMNSLKPEDTAVYYCAAGSYHYPNAYYYWGQGTQVTVSS", "polyreactivity (PSR sort gate)": "high polyreactivity"}
{"sequence": "QVQLVESGGGLVKAGGSLRLSCAASGSIFRYYAMGWYRQAPGKERELVASITNGGSTNYADSVKGRFTISRDNAKNTVYLQMNSLKPEDTAVYYCAARYLYYTPPPRRYYYWAQGTQVTVSS", "polyreactivity (PSR sort gate)": "high polyreactivity"}
{"sequence": "QVQLVESGGGLVKAGGSLRLSCAASGSSLRYNAMGWYRQAPGKERELVAAISWGGGRTHYADSVKGRFTISRDNAKNSVYLQMNSLKPEDTAVYYCNGVSVRYLYYYWGQGTQVTVSS", "polyreactivity (PSR sort gate)": "high polyreactivity"}
{"sequence": "QVQLVESGGGLVKAGGSLRLSCAASGSTFSRNTMGWYRQAPGKERELVAAITKSAVSTYYADTVTGRFTISRDNAKNTDYLEMNSLKPEDTAVYYSAKVYRTSTSKAYDYWGQGTKVTVSS", "polyreactivity (PSR sort gate)": "high polyreactivity"}
{"sequence": "QVQLVESGGGLVKAGGSLRLSCAASGSTFSRYAKGWYRQAPGKEREFVAAISKSGGGTYYADSVKGRFTISRDNAKNTVYLQMNSMKPEETAVYYCARRVRYKHYDYWGQGSQVTVSS", "polyreactivity (PSR sort gate)": "high polyreactivity"}
{"sequence": "QVQLVESGGGLVKAGGSLRLSCAASGSTLDPNVMGWYRQAPGKERELVAAITSGGSTYYADSVKGRFTISRDNAKNTVYLQMNSLKPEDTAVYYCAADSHGHVFYSWYDYWGQGTQVTVSS", "polyreactivity (PSR sort gate)": "low polyreactivity"}
{"sequence": "QVQLVESGGGLVKAGGSLRLSCAAYGFTIVYYAMGWYIQEHGKERELVAAISATGGRTYYADSVKGRFTISRDNAKNTVYLQMNSLKPEDTAVYYCATRRRVLYGYDYWGQGTQVTVSS", "polyreactivity (PSR sort gate)": "high polyreactivity"}
{"sequence": "QVQLVESGGGLVKAGGSLRLSCCASGFTFTGYAMGWYRQAPGKEWELVAAITRGGGSTYYADSVKGRFTISRDNAKNTVYLQMNSLKREDTAVYYCAAQGSRLIRISSPYYGHDYWGQGTQVTVSS", "polyreactivity (PSR sort gate)": "low polyreactivity"}
{"sequence": "QVQLVESGGGLVKEGGSLRLSCAASGSIFLQYAMGWYRQAPGKERELVAGISLRGCSTYYADSVKGRFTISRHNAKNTVYLQLNSLKPEDTAVYYCAADVIVTVETYTSGPSFTEYDYWGQGTQVTVSS", "polyreactivity (PSR sort gate)": "low polyreactivity"}
{"sequence": "QVQLVESGGGLVLAGGILRLSCAASGSTFYAYAMGWYRQAPGKERELVAAIDSGGSTYYADSVKGRFTISRDNAKNTVYLQMNSLKPEDTAVYYCAVRHRYTRAYWGRDYWGQGSQVTVSS", "polyreactivity (PSR sort gate)": "low polyreactivity"}
{"sequence": "QVQLVESGGGLVLAGGRLRLSCAASGFTFGPYAMGWSRQAPGKERELVAAISQSGGRTSYAVSVKGRFTISRDNGKNTVYLQMNSLKPEDTAVYYCAKRANGYRSIYRMDYWGQGTQVTVSS", "polyreactivity (PSR sort gate)": "high polyreactivity"}
{"sequence": "QVQLVESGGGLVLAGGSLRLSCAASGFTFPHYAMGWYRQAPGKERELVAVISWSGSSTYYADSVKGRFTISRDNAKNTVYLQMNSLKPEDTAVYYCNTRKLYQVDYDYWGQGTQVTVSS", "polyreactivity (PSR sort gate)": "high polyreactivity"}
{"sequence": "QVQLVESGGGLVLAGGSLRLSCAASGGIFYGYAMGWYREAPGKEREMVAAISSTGGRTYYADSVKGRFTISRDNAKNTVYLQMNSLKPEETAVYYCAAEDFTRQFEYWGQGTQVTVSS", "polyreactivity (PSR sort gate)": "low polyreactivity"}
{"sequence": "QVQLVESGGGLVLAGGSLRLSCAASGHIFFYYTMGWYRQSPGKERELVAGITIGGSTNYADSVKGLFTISRDNAKNTVYLQMISLKPEDTAVYYCNVVKYVYIYSYWEYYYWGQGTQVTVSS", "polyreactivity (PSR sort gate)": "low polyreactivity"}
{"sequence": "QVQLVESGGGLVLAGGSLRLSCAASGRSSSSYAMGWYRQAPGKEREFVAAIRSSGGSTSYADSVKGRFTISRDNAKNTVYLQMNSLKPEDTAVYYCAVRKHFVVSYDYWGQGTQVTVSS", "polyreactivity (PSR sort gate)": "high polyreactivity"}
{"sequence": "QVQLVESGGGLVLAGGSLRLSCAASGSIFSLYAMGWYRQAPGKEREVVAALSRGGSTNYADSVKGRFTISRDTAKNTVYLQMNCLKPEDTAVYYSNAGFGVRRKHITVYTWYDYWGQGTQVTVSS", "polyreactivity (PSR sort gate)": "low polyreactivity"}
{"sequence": "QVQLVESGGGLVLAGGSLRLSCAASGSNFSPNAMGWYRKAPGKERELVAAITYRGANTYYADSVKGRFTISRDYAKNTVYFLMNSLKPEDTAVYFCAAEYAYHHVGFGYWGQGTQVTVSS", "polyreactivity (PSR sort gate)": "low polyreactivity"}
{"sequence": "QVQLVESGGGLVLAGGSLRLSCAASGSTFGRYAMGWSRQAPGKERELVAAISRGTTTNYADSVKGRFTIARDNAKNTVYLQMNSLKPEETAVYYCAADQPSKRYYYWGQGTQVTVSS", "polyreactivity (PSR sort gate)": "low polyreactivity"}
{"sequence": "QVQLVESGGGLVLAGGSLRLSCAASGSTFIWNAMGWYRQAPGKERELVAAIRRGSSTNYADSVKGRFTISRDNAKNTVYLQMNSLKPEDTAVYYCAKKQVTTDVSSETFVLEMDYWGQGTQVTVSS", "polyreactivity (PSR sort gate)": "low polyreactivity"}
{"sequence": "QVQLVESGGGLVLAGGSLRLSCPASGFTFRYYAMGWSRQAPGKDRELVAAISVSGGSTYYADSVKGRFTISRDNAKNSVYLQMNILKPEDTAVYYCNARRNVGFGYWGQGTQVTVSS", "polyreactivity (PSR sort gate)": "high polyreactivity"}
{"sequence": "QVQLVESGGGLVPAGGSLRLSCAASGFIYWYAMGWYRQAPGKETELVAAITWSGGSTYADSVKGRFTISRDNAKNTVYLQMNCLKPEDSAVYYCAADKYSQWSSHTRVRYDYWGQGTQETVSS", "polyreactivity (PSR sort gate)": "low polyreactivity"}
{"sequence": "QVQLVESGGGLVPAGGSLRLSCAASGFTFEYYVIGWYRHAPGKERELVAAISSRGGSTYYADSVKGRFTISRDNAKNTVYLQMNSLKPDDTAVYYGATRDPYPRRREFEYWGQGTQVTVSS", "polyreactivity (PSR sort gate)": "low polyreactivity"}
